Assays:
[1] = molecular target: the molecule itself; test: crystal structure; apo form (1.80 Å) and IMP/Mg2+-bound form (1.72 Å), space group F23; one monomer in the asymmetric unit, dimer with a symmetry-related molecule
[2] = molecular target: the molecule itself; test: SEC; analytical gel filtration of NUDT16 wild-type against standard proteins; protocol in S1 Text

B1: human NUDT16 A22V (construct used for crystallography) (enzyme, UniProt Q96DE0 1-195, looked up)
chain: MAGARRLELGEALALGSGWRHVCHALLYAPDPGMLFGRIPLRYAILMQMRFDGRLGFPGGFVDTQDRSLEDGLNRELREELGEAAAAFRVERTDYRSSHVGSGPRVVAHFYAKRLTLEELLAVEAGATRAKDHGLEVLGLVRVPLYTLRDGVGGLPTFLENSFIGSAREQLLEALQDLGLLQSGSISGLKIPAHH
notes: human NUDT16, full length, from MGC cDNA BC031215, which carries a mutation that replaces Ala22 by Val; A22V was already in the purchased cDNA and was not introduced by the authors; A TEV protease site follows the His6 tag; no cleavage is described for the crystallography sample; One monomer lies in the asymmetric unit and the dimer is formed by crystallographic symmetry; also called apo-NUDT16; …
[1]
  binding result: binds

B2: human NUDT16 wild-type (sample for analytical gel filtration) (enzyme, UniProt Q96DE0 1-195, looked up)
chain: MAGARRLELGEALALGSGWRHACHALLYAPDPGMLFGRIPLRYAILMQMRFDGRLGFPGGFVDTQDRSLEDGLNRELREELGEAAAAFRVERTDYRSSHVGSGPRVVAHFYAKRLTLEELLAVEAGATRAKDHGLEVLGLVRVPLYTLRDGVGGLPTFLENSFIGSAREQLLEALQDLGLLQSGSISGLKIPAHH
notes: human NUDT16 wild-type (Ala22); expression and purification for gel filtration are described only in S1 Text
[2]
  stoichiometry N: 2
